T1: FLI-1 (UniProt Q01543 1-452)
T1 sequence: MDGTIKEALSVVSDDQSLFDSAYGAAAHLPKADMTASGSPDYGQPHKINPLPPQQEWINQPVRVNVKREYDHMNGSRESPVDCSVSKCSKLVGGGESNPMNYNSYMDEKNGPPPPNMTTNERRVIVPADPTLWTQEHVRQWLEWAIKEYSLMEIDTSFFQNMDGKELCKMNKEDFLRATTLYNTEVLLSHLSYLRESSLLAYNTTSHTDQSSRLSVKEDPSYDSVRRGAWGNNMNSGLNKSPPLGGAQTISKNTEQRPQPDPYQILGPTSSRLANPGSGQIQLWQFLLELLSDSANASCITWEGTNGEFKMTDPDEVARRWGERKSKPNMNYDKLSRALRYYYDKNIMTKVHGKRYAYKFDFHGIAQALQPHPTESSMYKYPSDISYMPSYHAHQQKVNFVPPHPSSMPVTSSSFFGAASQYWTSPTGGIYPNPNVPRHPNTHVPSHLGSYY

B1: -51 ETS (dsDNA)
DNA 1: CCCGGGTTTCCGGACTGGGCTG
DNA 2: CAGCCCAGTCCGGAAACCCGGG
B2: -51 ETSmut (dsDNA)
DNA 1: CCCGGGTCGGTGGACTGGGCTG
DNA 2: CAGCCCAGTCCACCGACCCGGG

Assays:
FLI-1 [1] = biological target: T1, FLI-1; assay: EMSA; supershift with anti-FLI-1; 2 mM HEPES-NaOH pH 7.9, 5 mM KCl, 2% glycerol, 0.01 mM EDTA, 0.25 mM DTT, 0.1 mg/ml BSA, 5 ng/ul poly dI-dC, 50 fmol probe, 40 min at 4 C; 4% native gel, 0.5x TBE; details: protein: ivt; label: 32P; blunt
ELF-1 [2] = biological target: T2, ELF-1 (UniProt P32519 1-619); assay: EMSA; anti-ELF-1 inhibits, weak supershift; 2 mM HEPES-NaOH pH 7.9, 5 mM KCl, 2% glycerol, 0.01 mM EDTA, 0.25 mM DTT, 0.1 mg/ml BSA, 5 ng/ul poly dI-dC, 50 fmol probe, 40 min at 4 C; 4% native gel, 0.5x TBE; details: protein: ivt; label: 32P; blunt
T2 sequence (P32519 whole entry): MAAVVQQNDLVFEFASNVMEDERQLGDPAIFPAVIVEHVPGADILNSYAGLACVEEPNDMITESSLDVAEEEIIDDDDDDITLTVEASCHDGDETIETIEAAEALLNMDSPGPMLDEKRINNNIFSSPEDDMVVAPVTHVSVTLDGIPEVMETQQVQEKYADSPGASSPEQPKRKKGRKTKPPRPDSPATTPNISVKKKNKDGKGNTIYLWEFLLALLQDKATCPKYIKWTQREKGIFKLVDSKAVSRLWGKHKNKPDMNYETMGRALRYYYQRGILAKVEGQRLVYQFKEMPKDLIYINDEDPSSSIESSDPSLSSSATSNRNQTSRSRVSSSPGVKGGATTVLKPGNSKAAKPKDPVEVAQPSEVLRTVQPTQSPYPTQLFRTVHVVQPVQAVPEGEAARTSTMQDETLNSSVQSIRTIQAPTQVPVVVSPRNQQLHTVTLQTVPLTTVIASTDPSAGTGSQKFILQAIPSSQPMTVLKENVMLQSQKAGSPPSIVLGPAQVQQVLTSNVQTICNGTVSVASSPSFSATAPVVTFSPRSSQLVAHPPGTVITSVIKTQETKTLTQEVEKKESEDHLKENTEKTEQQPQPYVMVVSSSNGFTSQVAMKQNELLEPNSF

ELF-1 [3] = biological target: T2, ELF-1; assay: EMSA; 2 mM HEPES-NaOH pH 7.9, 5 mM KCl, 2% glycerol, 0.01 mM EDTA, 0.25 mM DTT, 0.1 mg/ml BSA, 5 ng/ul poly dI-dC, 50 fmol probe, 40 min at 4 C; 4% native gel, 0.5x TBE; details: protein: ivt; label: 32P as probe; blunt
FLI-1 [4] = biological target: T1, FLI-1; assay: as above; details: protein: ivt; label: 32P as probe; blunt

Binder	binding result (FLI-1 [1])	binding result (ELF-1 [2])	binding result (ELF-1 [3])	binding result (FLI-1 [4])
B1	binds	binds	–	–
B2	–	–	no binding	no binding

Reference: publication PMC3171469, “Multiple ETS Family Proteins Regulate PF4 Gene Expression by Binding to the Same ETS Binding Site”
